The target of one assay is T1, ObgE (rObgE) (Phocaeicola vulgatus, UniProt A6L100).
T1 construct: gene obg; 45 kDa; nucleotide-free (alkaline phosphatase, gel filtration)
T1 sequence (A6L100 1-394): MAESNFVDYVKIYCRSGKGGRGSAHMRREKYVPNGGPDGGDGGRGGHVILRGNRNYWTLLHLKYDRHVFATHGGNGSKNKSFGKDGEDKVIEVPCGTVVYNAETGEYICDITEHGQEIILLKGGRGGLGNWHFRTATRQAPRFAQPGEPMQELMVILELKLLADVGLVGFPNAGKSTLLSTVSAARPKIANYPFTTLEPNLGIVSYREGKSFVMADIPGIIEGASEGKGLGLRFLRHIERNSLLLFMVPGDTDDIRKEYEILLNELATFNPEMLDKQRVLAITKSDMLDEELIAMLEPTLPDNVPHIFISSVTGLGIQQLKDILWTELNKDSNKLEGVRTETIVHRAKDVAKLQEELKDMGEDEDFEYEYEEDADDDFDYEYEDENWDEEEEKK
The assay can be described thus: isothermal titration calorimetry. It is filed as binding. A general note: ITC needs no label: the signal is the heat of the interaction.

Assay [1] concerns the target recombinant ObgE of Bacteroides vulgatus MGM001, nucleotide-free (Bacteroides vulgatus MGM001). The assay can be described thus: ITC; MicroCal iTC200; nucleotide-free rObgE (40 μM) titrated with 400 μM cyclic dipeptide at 25 °C in 20 mM HEPES (pH 7.5), 150 mM NaCl, 5 mM MgCl2, 1 mM β-mercaptoethanol; single binding site model.

In turn, `O=C1N[C@@H](Cc2ccccc2)C(=O)N2CCC[C@@H]12` [cFP] showed a Kd at ObgE (rObgE) of 1800 ± 350 nM.

With cyclo-(phenylalanine-proline) (peptide), in assay [1], the Kd was 1800 nM and the stoichiometry N was 0.78.

The term Kd denotes the equilibrium constant for the complex coming apart. As usually defined, the stoichiometry N is the number of molecules, sites or subunits per partner or assembly.

Source of the values: paper PMC8293591, “Vibrio vulnificus induces the death of a major bacterial species in the mouse gut via cyclo-Phe-Pro” (Microbiome, 2021).
